We go through ten molecules from patent publication US20240067696A1 (ZEALAND PHARMA A S, published 2024).

To fix the notation:
B1: Compound 41 (peptide)
peptide: H-HS[Dap](Ac)GTFTSDYSKYLD[Aib]ARAEEFVKWLEST-NH2
SMILES: CC(=O)NC[C@H](NC(=O)[C@H](CO)NC(=O)[C@@H](N)Cc1c[nH]cn1)C(=O)NCC(=O)N[C@H](C(=O)N[C@@H](Cc1ccccc1)C(=O)N[C@H](C(=O)N[C@@H](CO)C(=O)N[C@@H](CC(=O)O)C(=O)N[C@@H](Cc1ccc(O)cc1)C(=O)N[C@@H](CO)C(=O)N[C@@H](CCCCN)C(=O)N[C@@H](Cc1ccc(O)cc1)C(=O)N[C@@H](CC(C)C)C(=O)N[C@@H](CC(=O)O)C(=O)NC(C)(C)C(=O)N[C@@H](C)C(=O)N[C@@H](CCCNC(=N)N)C(=O)N[C@@H](C)C(=O)N[C@@H](CCC(=O)O)C(=O)N[C@@H](CCC(=O)O)C(=O)N[C@@H](Cc1ccccc1)C(=O)N[C@H](C(=O)N[C@@H](CCCCN)C(=O)N[C@@H](Cc1c[nH]c2ccccc12)C(=O)N[C@@H](CC(C)C)C(=O)N[C@@H](CCC(=O)O)C(=O)N[C@@H](CO)C(=O)N[C@H](C(N)=O)[C@@H](C)O)C(C)C)[C@@H](C)O)[C@@H](C)O
B2: Compound 40 (peptide)
peptide: H-HS[Dab](Ac)GTFTSDYSKYLD[Aib]ARAEEFVKWLEST-NH2
SMILES: CC(=O)NCC[C@H](NC(=O)[C@H](CO)NC(=O)[C@@H](N)Cc1c[nH]cn1)C(=O)NCC(=O)N[C@H](C(=O)N[C@@H](Cc1ccccc1)C(=O)N[C@H](C(=O)N[C@@H](CO)C(=O)N[C@@H](CC(=O)O)C(=O)N[C@@H](Cc1ccc(O)cc1)C(=O)N[C@@H](CO)C(=O)N[C@@H](CCCCN)C(=O)N[C@@H](Cc1ccc(O)cc1)C(=O)N[C@@H](CC(C)C)C(=O)N[C@@H](CC(=O)O)C(=O)NC(C)(C)C(=O)N[C@@H](C)C(=O)N[C@@H](CCCNC(=N)N)C(=O)N[C@@H](C)C(=O)N[C@@H](CCC(=O)O)C(=O)N[C@@H](CCC(=O)O)C(=O)N[C@@H](Cc1ccccc1)C(=O)N[C@H](C(=O)N[C@@H](CCCCN)C(=O)N[C@@H](Cc1c[nH]c2ccccc12)C(=O)N[C@@H](CC(C)C)C(=O)N[C@@H](CCC(=O)O)C(=O)N[C@@H](CO)C(=O)N[C@H](C(N)=O)[C@@H](C)O)C(C)C)[C@@H](C)O)[C@@H](C)O
B3: Compound 39 (peptide)
peptide: H-HS[Dab](Ac)GTFTSDYSKYLD[Aib]ARAEEFVKWLEST-OH
SMILES: CC(=O)NCC[C@H](NC(=O)[C@H](CO)NC(=O)[C@@H](N)Cc1c[nH]cn1)C(=O)NCC(=O)N[C@H](C(=O)N[C@@H](Cc1ccccc1)C(=O)N[C@H](C(=O)N[C@@H](CO)C(=O)N[C@@H](CC(=O)O)C(=O)N[C@@H](Cc1ccc(O)cc1)C(=O)N[C@@H](CO)C(=O)N[C@@H](CCCCN)C(=O)N[C@@H](Cc1ccc(O)cc1)C(=O)N[C@@H](CC(C)C)C(=O)N[C@@H](CC(=O)O)C(=O)NC(C)(C)C(=O)N[C@@H](C)C(=O)N[C@@H](CCCNC(=N)N)C(=O)N[C@@H](C)C(=O)N[C@@H](CCC(=O)O)C(=O)N[C@@H](CCC(=O)O)C(=O)N[C@@H](Cc1ccccc1)C(=O)N[C@H](C(=O)N[C@@H](CCCCN)C(=O)N[C@@H](Cc1c[nH]c2ccccc12)C(=O)N[C@@H](CC(C)C)C(=O)N[C@@H](CCC(=O)O)C(=O)N[C@@H](CO)C(=O)N[C@H](C(=O)O)[C@@H](C)O)C(C)C)[C@@H](C)O)[C@@H](C)O
B4: Compound 38 (peptide)
peptide: H-HSHGTFTSDYSKYLD[Aib]ARAEEFVKWLEST-NH2
SMILES: CC(C)C[C@H](NC(=O)[C@H](Cc1c[nH]c2ccccc12)NC(=O)[C@H](CCCCN)NC(=O)[C@@H](NC(=O)[C@H](Cc1ccccc1)NC(=O)[C@H](CCC(=O)O)NC(=O)[C@H](CCC(=O)O)NC(=O)[C@H](C)NC(=O)[C@H](CCCNC(=N)N)NC(=O)[C@H](C)NC(=O)C(C)(C)NC(=O)[C@H](CC(=O)O)NC(=O)[C@H](CC(C)C)NC(=O)[C@H](Cc1ccc(O)cc1)NC(=O)[C@H](CCCCN)NC(=O)[C@H](CO)NC(=O)[C@H](Cc1ccc(O)cc1)NC(=O)[C@H](CC(=O)O)NC(=O)[C@H](CO)NC(=O)[C@@H](NC(=O)[C@H](Cc1ccccc1)NC(=O)[C@@H](NC(=O)CNC(=O)[C@H](Cc1c[nH]cn1)NC(=O)[C@H](CO)NC(=O)[C@@H](N)Cc1c[nH]cn1)[C@@H](C)O)[C@@H](C)O)C(C)C)C(=O)N[C@@H](CCC(=O)O)C(=O)N[C@@H](CO)C(=O)N[C@H](C(N)=O)[C@@H](C)O

Non-standard residues stand in square brackets, D forms with d. Dab = NCC[C@H](N)C(=O)O; Dap = NC[C@H](N)C(=O)O; Aib = CC(C)(N)C(=O)O

The target of this assay is human glucagon receptor (human, UniProt P47871 26-477). The experiment in a line: cell-based or functional assay.
Chain of human glucagon receptor (P47871 26-477): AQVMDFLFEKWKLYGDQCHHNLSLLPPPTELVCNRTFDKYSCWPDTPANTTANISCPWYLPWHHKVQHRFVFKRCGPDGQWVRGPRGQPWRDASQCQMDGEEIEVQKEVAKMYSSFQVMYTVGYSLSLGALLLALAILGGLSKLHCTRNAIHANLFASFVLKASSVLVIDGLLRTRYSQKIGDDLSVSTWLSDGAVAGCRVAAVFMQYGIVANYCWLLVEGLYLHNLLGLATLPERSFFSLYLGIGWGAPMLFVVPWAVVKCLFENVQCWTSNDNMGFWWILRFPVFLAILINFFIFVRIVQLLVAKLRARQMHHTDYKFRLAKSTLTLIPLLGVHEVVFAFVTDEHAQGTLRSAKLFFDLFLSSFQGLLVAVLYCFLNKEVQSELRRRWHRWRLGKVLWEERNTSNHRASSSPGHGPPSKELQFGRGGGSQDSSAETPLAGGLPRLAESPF
For the molecule H-HSQGTFTSDYSKYLDSARAEDFVAWLEST-OH [Compound 4], the “GCG-R EC50 in vitro [nM] (cAMP, AlphaScreen, HEK293 cells expressing human Glucagon-R)” value (“GCG-R EC50 in vitro [nM]” for short) was 0.34 nM.
In the case of H-HSQGTFTSDYSRYLESARAEDFVKWLEST-OH [Compound 7], the “GCG-R EC50 in vitro [nM]” value came to 0.93 nM.
As to B1, the “GCG-R EC50 in vitro [nM]” value came to 0.0038 nM.
In the case of H-HSQGTFTSDYSKYLDSARAEDFVEWLEST-OH [Compound 6], the “GCG-R EC50 in vitro [nM]” value was determined as 1 nM.
Turning to H-HSQGTFTSDYSKYLDKARAEDFVKWLEST-OH [Compound 3], the “GCG-R EC50 in vitro [nM]” value stood at 0.03 nM.
The figure for B2 is 0.0035 nM.
The figure for H-HSQGTFTSDYSKYLDEARAKDFVEWLEKT-OH [Compound 5] is 0.17 nM; for B3 it is 0.0044 nM.
The figure for B4 is 0.0047 nM.
Consider H-HSQGTFTSDYSKYLESARAEDFVKWLEST-OH [Compound 8], for which the “GCG-R EC50 in vitro [nM]” value is 0.38 nM.
